23 sequences from the Immune Epitope Database (IEDB) can be followed below.

The target in assay [1] is HLA-A*24:02. The assay can be described thus: IEDB peptide-MHC binding, purified MHC/competitive/fluorescence; ≥ and ≤ were set here for values at or beyond the usual limits of such assays.
In a further assay the target is HLA-A*30:01. Put plainly: IEDB peptide-MHC binding, purified MHC/competitive/radioactivity; filed as Kd, often an IC50 or EC50 that approximates it; ≥ and ≤ were set here for values at or beyond the usual limits of such assays.
Assay [2] deals with HLA-A*02:01. Put plainly: IEDB peptide-MHC binding, purified MHC/competitive/fluorescence; filed as Kd, often an IC50 or EC50 that approximates it; ≥ and ≤ were set here for values at or beyond the usual limits of such assays. The conditions noted are these: source organism: Vaccinia virus WR 65-16.
Assay [3] has as its target HLA-A*02:01. Put plainly: IEDB peptide-MHC binding, purified MHC/competitive/fluorescence; ≥ and ≤ were set here for values at or beyond the usual limits of such assays.
The target of the next assay is HLA-A*01:01. The assay can be described thus: IEDB peptide-MHC binding, purified MHC/competitive/radioactivity; filed as Kd, often an IC50 or EC50 that approximates it; ≥ and ≤ were set here for values at or beyond the usual limits of such assays.
The target of assay [4] is HLA-A*24:02. The assay is described as above.
For a further assay, the target named is HLA-A*30:02. Described as above.
In a further assay the target is HLA-A*32:01. Described as above.
The next assay deals with HLA-A*26:01. The assay is described as above.
Another assay addresses HLA-A*29:02. Described as above.
Another assay concerns the target HLA-A*23:01. The description is as above.
The target in assay [5] is HLA-A*31:01. Described as above.
In the next assay the target is HLA-A*68:01. The description is as above.
The target of assay [6] is HLA-A*03:01. The description is as above.
The next assay deals with HLA-A*33:01. The assay is described as above.
Another assay deals with HLA-B*35:01. The description is as above.
The target in assay [7] is HLA-A*31:01. Put plainly: IEDB peptide-MHC binding, purified MHC/direct/fluorescence; filed as Kd, often an IC50 or EC50 that approximates it; ≥ and ≤ were set here for values at or beyond the usual limits of such assays. The following applies: source organism: Entamoeba histolytica HM-1:IMSS.
Assay [8] concerns the target HLA-A*03:01. Described as above. The conditions noted are these: source organism: Entamoeba histolytica HM-1:IMSS.
Another assay has as its target HLA-B*53:01. The assay can be described thus: IEDB peptide-MHC binding, purified MHC/competitive/radioactivity; filed as Kd, often an IC50 or EC50 that approximates it; ≥ and ≤ were set here for values at or beyond the usual limits of such assays. The conditions noted are these: source organism: Dengue virus 4 Philippines/H241/1956.
[9] abbreviates: source organism: Dengue virus 3 Martinique/1243/1999.
Setting [10] is: source organism: Vaccinia virus WR.
Where [11] appears, read: source organism: Zaire ebolavirus.
Where [12] appears, read: source organism: Mammarenavirus brazilense.
[13] abbreviates: source organism: Mammarenavirus machupoense.
Setting [14] is: source organism: Lymphocytic choriomeningitis virus (strain Armstrong).

The term IC50 denotes the concentration needed to halve the response being measured. In the assay with HLA-A*24:02 [1] (source organism: Sudan ebolavirus), IGEWAFWEN showed an IC50 of 58800 nM.

One may read the Kd as the equilibrium constant for the complex coming apart. For ITTDSRCPTQ, in the assay with HLA-A*30:01 (setting [9]), the equilibrium dissociation constant (Kd) was 866 nM.

Consider TLRAAMISL, for which the Kd turned out to be 0.714 nM with HLA-A*30:01 (setting [10]) and 2310 nM in the assay with HLA-A*02:01 [2].

In the case of VNPEIDTTI, the half-maximal inhibitory concentration (IC50) was 16100 nM with HLA-A*24:02 [1] (setting [11]) and no less than 358000 nM with HLA-A*02:01 [3] (setting [11]).

Take PYFGPAAEG: the IC50 with HLA-A*24:02 [1] (setting [11]) amounted to 13000 nM.

As to GERSRCYSLY, the Kd with HLA-A*01:01 (setting [12]) is no less than 26700 nM; in the assay with HLA-A*24:02 [4] (setting [12]) it was no less than 70300 nM; with HLA-A*30:01 (setting [12]), 5430 nM; with HLA-A*30:02 (setting [12]), 718 nM; in the assay with HLA-A*32:01 (setting [12]), no less than 69900 nM; in the assay with HLA-A*26:01 (setting [12]), no less than 69700 nM. The Kd in the assay with HLA-A*29:02 (setting [12]) was 14400 nM; with HLA-A*23:01 (setting [12]), no less than 70000 nM.

On to AWRTATLIL, for which the dissociation constant Kd with HLA-A*30:01 (setting [9]) amounted to 592 nM.

Consider KSKFPRSML, for which, in the assay with HLA-A*30:01 (setting [10]), the Kd is 31.2 nM.

The sequence HYAYMVPGW showed an IC50 with HLA-A*24:02 [1] (source organism: West Nile virus) of 220 nM.

In the case of KVRTNAAMG, the Kd with HLA-A*30:01 (setting [9]) was 11.3 nM.

In the case of TVKDGRLGA, in the assay with HLA-A*30:01 (setting [10]), the Kd came to 240 nM.

SIQKNTIFK: the Kd with HLA-A*31:01 [5] (setting [13]) was 1890 nM; in the assay with HLA-A*30:01 (setting [13]) it was 62.6 nM; with HLA-A*68:01 (setting [13]) it was 162 nM; in the assay with HLA-A*03:01 [6] (setting [13]) it was 10.4 nM; with HLA-A*33:01 (setting [13]), no less than 22900 nM.

As for LAILFEEVM, the Kd in the assay with HLA-B*35:01 (setting [9]) turned out to be 33.1 nM.

On to TTYLGPLSCK, for which the equilibrium dissociation constant (Kd) with HLA-A*31:01 [5] (setting [14]) came out at 540 nM; with HLA-A*30:01 (setting [14]), 432 nM; with HLA-A*68:01 (setting [14]), 4.63 nM; in the assay with HLA-A*03:01 [6] (setting [14]) it was 4.47 nM; with HLA-A*33:01 (setting [14]), 647 nM.

Take VQLESRFTP: the IC50 is 59200 nM in the assay with HLA-A*24:02 [1] (setting [11]) and no less than 197000 nM with HLA-A*02:01 [3] (setting [11]).

On to KAMWKYPFS, for which the Kd in the assay with HLA-A*30:01 (setting [10]) was 250 nM.

Turning to WYKVFVPRR, the Kd with HLA-A*31:01 [7] was 102 nM; in the assay with HLA-A*03:01 [8], no less than 20000 nM.

Take KAQREIFSA: the IC50 with HLA-A*24:02 [1] (source organism: Variola virus) came to 165 nM; in the assay with HLA-A*02:01 [3] (source organism: Variola virus), 2010 nM.

Regarding NPRLCTREEF, the Kd came to 197 nM in the assay with HLA-B*53:01 and 892 nM in the assay with HLA-B*35:01 (source organism: Dengue virus 4 Philippines/H241/1956).

On to RAREQISNL, for which, in the assay with HLA-A*30:01 (source organism: Cowpox virus), the Kd was 2.73 nM.

As for YEDKVWDKY, the Kd is 7020 nM in the assay with HLA-A*01:01 (setting [14]); no less than 77500 nM in the assay with HLA-A*24:02 [4] (setting [14]); no less than 32200 nM with HLA-A*30:01 (setting [14]); 2710 nM in the assay with HLA-A*30:02 (setting [14]); no less than 77800 nM with HLA-A*32:01 (setting [14]); no less than 77900 nM with HLA-A*26:01 (setting [14]). The Kd was no less than 29900 nM with HLA-A*29:02 (setting [14]) and no less than 77700 nM with HLA-A*23:01 (setting [14]).

RTSSDPGTN registered an IC50 in the assay with HLA-A*24:02 [1] (setting [11]) of no less than 98100 nM.

On to TARSNNRLA, for which, in the assay with HLA-A*30:01 (setting [10]), the Kd was 57.6 nM.
